Measured values as given in the supplement of paper PMC10567573.

B1: FBF1 (parent)
chain: LQRASILDMRRDHEEQLQRLKLLK

Variants of: B1
Test: protein stability index of a GFP-peptide fusion (GPS, HEK-293T) (PSI 1-6); higher = more stable
Settings: c terminus: a fixed tail appended
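Further: lentivirally expressed fusions sorted by FACS into six bins by GFP to DsRed ratio, PSI derived from sequencing read proportions per bin multiplied by bin number.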

| Variant | protein stability index |
| --- | --- |
| LQRASILDMRRDHEEQLQRLPLLK [K21P] | 4.75 |
| LQRASILDMRRDHEEQLQRLDLLK [K21D] | 3.88 |
| LQRASILDMRRDHEEQLQRLTLLK [K21T] | 3.38 |
| LQRASILDMRRDHEEQLQRLVLLK [K21V] | 3.07 |
| LQRASILDMRRDHEEQLQRLSLLK [K21S] | 3.21 |
| LQRASILDMRRDHEEQLQRLHLLK [K21H] | 3.29 |
| LQRASILDMRRDHEEQLQRLKILK [L22I] | 3.77 |
| LQRASILDMRRDHEEQLQRLKALK [L22A] | 3.18 |
| LQRASILDMRRDHEEQLQRLKPLK [L22P] | 4.24 |
| LQRASILDMRRDHEEQLQRLKGLK [L22G] | 3.44 |
| LQRASILDMREDHEEQLQRLKLLK [R11E] | 3.64 |
| LQRASILDMRHDHEEQLQRLKLLK [R11H] | 2.88 |
| LQRASILDMRPDHEEQLQRLKLLK [R11P] | 3.67 |
| LQRASILDMRCDHEEQLQRLKLLK [R11C] | 3.36 |
| LQRASILDMRGDHEEQLQRLKLLK [R11G] | 3.54 |
| LQRASILDMRTDHEEQLQRLKLLK [R11T] | 3.86 |
| LQRASILDMRYDHEEQLQRLKLLK [R11Y] | 2.68 |
| LQRASILDMRVDHEEQLQRLKLLK [R11V] | 3.18 |
| LQRASILDMRWDHEEQLQRLKLLK [R11W] | 2.64 |
| LQRASILDMRSDHEEQLQRLKLLK [R11S] | 3.43 |
| LQRASILDMRRDHEEQLQRAKLLK [L20A] | 3.79 |
| LQRASILDMRRDHEEQLQRMKLLK [L20M] | 4 |
| LQRASILDMRRDHEEQLQRKKLLK [L20K] | 4.1 |
| LQRASILDMRRDHEEQLQRDKLLK [L20D] | 4.45 |

| Variant | protein stability index |
| --- | --- |
| LQRASILDMRRDHEEQLQRWKLLK [L20W] | 2.78 |
| LQRASILDMRRDHEEQLQRGKLLK [L20G] | 4.34 |
| LQRASILDMWRDHEEQLQRLKLLK [R10W] | 3.06 |
| LQRASILDMCRDHEEQLQRLKLLK [R10C] | 2.8 |
| LQRASILDMGRDHEEQLQRLKLLK [R10G] | 3.79 |
| LQRASILDMNRDHEEQLQRLKLLK [R10N] | 3.91 |
| LQRASILDMLRDHEEQLQRLKLLK [R10L] | 2.5 |
| LQRASILDMIRDHEEQLQRLKLLK [R10I] | 2.96 |
| LQRASILDMSRDHEEQLQRLKLLK [R10S] | 3.9 |
| LIRASILDMRRDHEEQLQRLKLLK [Q2I] | 2.49 |
| LTRASILDMRRDHEEQLQRLKLLK [Q2T] | 3.54 |
| LCRASILDMRRDHEEQLQRLKLLK [Q2C] | 2.63 |
| LERASILDMRRDHEEQLQRLKLLK [Q2E] | 3.44 |
| LVRASILDMRRDHEEQLQRLKLLK [Q2V] | 2.88 |
| LMRASILDMRRDHEEQLQRLKLLK [Q2M] | 3.28 |
| LLRASILDMRRDHEEQLQRLKLLK [Q2L] | 2.25 |
| LFRASILDMRRDHEEQLQRLKLLK [Q2F] | 3 |
| LKRASILDMRRDHEEQLQRLKLLK [Q2K] | 2.93 |
| LYRASILDMRRDHEEQLQRLKLLK [Q2Y] | 2.77 |
| LNRASILDMRRDHEEQLQRLKLLK [Q2N] | 3.85 |
| LGRASILDMRRDHEEQLQRLKLLK [Q2G] | 3.79 |
| LQRASILDMRRDHEHQLQRLKLLK [E15H] | 3.09 |
| LQRASILDMRRDHEAQLQRLKLLK [E15A] | 3.4 |
